{
  "source": "patent US20230235054A1",
  "about": "(BIOATLA, published 2023)",
  "key": {"human Nectin-4-mFc": {"target": "T1, human Nectin-4-mFc (human, UniProt Q96NY8 32-349)", "T1 construct": "extracellular domain; Detection reagent of the bridging ELISA; also called recombinant human Nectin-4 ECD; not shown: mFc (mouse Fc)", "T1 sequence (looked up)": "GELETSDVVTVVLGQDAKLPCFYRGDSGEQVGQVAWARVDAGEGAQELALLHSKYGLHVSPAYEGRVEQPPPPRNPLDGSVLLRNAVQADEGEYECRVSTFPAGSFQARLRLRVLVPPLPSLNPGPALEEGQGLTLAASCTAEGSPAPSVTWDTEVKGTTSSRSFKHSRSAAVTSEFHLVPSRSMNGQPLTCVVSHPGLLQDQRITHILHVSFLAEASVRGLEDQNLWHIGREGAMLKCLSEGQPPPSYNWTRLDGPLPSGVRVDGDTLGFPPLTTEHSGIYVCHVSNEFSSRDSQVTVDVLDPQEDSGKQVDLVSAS", "test": "bridging ELISA, human CD3 coated, detection with human Nectin-4-mFc and anti-mouse IgG HRP, tumor pH (pH 6.0 in the protocol)"}, "[1]": {"target": "T2, CD3 epsilon/delta heterodimer protein (human, UniProt P07766 23-126; P04234 22-105)", "T2 construct": "Capture antigen of the bridging ELISA; also called human CD3; recombinant human CD3 antigen", "T2 sequence (P07766 23-126, stated change not applied, chain 1 of 2)": "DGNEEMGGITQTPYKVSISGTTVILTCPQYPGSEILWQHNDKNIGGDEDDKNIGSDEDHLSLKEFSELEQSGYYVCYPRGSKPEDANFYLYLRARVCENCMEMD", "T2 sequence (P04234 22-105, stated change not applied, chain 2 of 2)": "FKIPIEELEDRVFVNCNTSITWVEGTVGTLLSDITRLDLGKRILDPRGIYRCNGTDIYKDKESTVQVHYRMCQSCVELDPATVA", "test": "bridging ELISA, human CD3 coated, bispecific titrated, detection with human Nectin-4-mFc and anti-mouse IgG HRP, physiological pH (pH 7.4 in the protocol); the signal needs both arms", "experimental": "(§1) 1) Coat ELISA plates with 100 μL of 0.5 μg/mL recombinant human CD3 antigen in carbonate-bicarbonate coating buffer. 2) Cover plates with sealing film and incubate overnight at 4° C. 3) Decant plates and tap out residual liquid on a stack of paper towels. 4) Wash wells twice by dispensing 200 μL of pH 6.0 or pH 7.4 ELISA incubation buffer to the wells and completely aspirate the contents. 5) Add 200 μL of pH 6.0 or pH 7.4 ELISA incubation buffer to the wells. Cover with sealing film and place the plate onto a plate shaker set to 50 rpm for 60 minutes at room temperature. 6) Decant plates and tap out residual liquid on a stack of paper towels. 7) Serially dilute test articles in 3-fold dilutions starting at 3000 ng/mL in pH 6.0 or pH 7.4 ELISA incubation buffer. 8) Add 100 μL/well of diluted test articles to the plates 9) Cover with sealing film and place the plates onto a plate shaker set to 50 rpm for 60 minutes at room temperature. 10) Decant plates and tap out residual liquid on a stack of paper towels. 11) Wash wells three times by dispensing 200 μL of pH 6.0 or pH 7.4 ELISA wash buffer to the wells and completely aspirate the contents. 12) Dilute the HRP secondary antibody at 1:2500 in pH 6.0 or pH 7.4 ELISA incubation buffer. […] Read plates at 450 nm using PerkinElmer, EnSpire 2300 Multilabel Reader."}, "[2]": {"target": "T2, CD3 epsilon/delta heterodimer protein", "test": "bridging ELISA, human CD3 coated, bispecific titrated, detection with human Nectin-4-mFc and anti-mouse IgG HRP, tumor pH (pH 6.0 in the protocol); the signal needs both arms", "experimental": "as §1"}},
  "data": [
    {"binder": "WT Nectin4 × WT CD3 (bispecific antibody, elsewhere it is called a light chain variable region that also carries six anti-CD3 CDRs; also called BA-150-19-01-01-BF1; benchmark) VH: EVQLVESGGGLVQPGGSLRLSCAASGFTFSSYNMNWVRQAPGKGLEWVSYISSSSSTIYYADSVKGRFTISRDNAKNSLSLQMNSLRDEDTAVYYCARAYYYGMDVWGQGTTVTVSS light: DIQMTQSPSSVSASVGDRVTITCRASQGISGWLAWYQQKPGKAPKFLIYAASTLQSGVPSRFSGSGSGTDFTLTISSLQPEDFATYYCQQAQSFPPTFGGGTKVEIKRTVAAPSVFIFPPSDEQLKSGTASVVCLLNNFYPREAKVQWKVDNALQSGNSQESVTEQDSKDSTYSLSSTLTLSKADYEKHKVYACEVTHQGLSSPVTKSFNRGECSRSGGGGEVQLVESGGGLVQPGGSLRLSCAASGFTFNTYAMNWVRQAPGKGLEWVARIRSKYNNYATYYADSVKDRFTISRDDSKNSLYLQMNSLKTEDTAVYYCVRHGNFGNSYVSWFAYWGQGTLVTVSSGGSGGSGGSGGSGGQAVVTQEPSLTVSPGGTVTLTCRSSTGAVTTSNYANWVQQKPGQAPRGLIGGTNKRAPWTPARFSGSLLGGKAALTITGAQAEDEADYYCALWYSNLWVFGGGTKLTVLSR", "values": [
      {"measurement": "binding result", "setting": "human Nectin-4-mFc", "value": "binds"},
      {"measurement": "EC50 (read off the curve)", "setting": "[1]", "value": "~0.03", "unit": "µg/mL"},
      {"measurement": "EC50 (read off the curve)", "setting": "[2]", "value": "~0.05", "unit": "µg/mL"}
    ]},
    {"binder": "CAB Nectin4 × CAB CD3 (bispecific antibody, elsewhere it is called a light chain variable region that also carries six anti-CD3 CDRs; also called BA-150-30-03-12-BF19) VH: EVQLVESGGGLVQPGGSLRLSCAASGFTFSSYNMNWVRQAPGKGLEWVSYISSSSSTIYYADSVKGRFTISRDNAKNSLSLQMNSLRDEDTAVYYCARAYYYGMDKWGQGTTVTVSS light: DIQMTQSPSSVSASVGDRVTITCRASQGISGWEAWYQQKPGKAPKFLIYAASTLQSGVPSRFSGSGSGTDFTLTISSLQPEDFATYYCQQAQSFPPTFGGGTKVEIKRTVAAPSVFIFPPSDEQLKSGTASVVCLLNNFYPREAKVQWKVDNALQSGNSQESVTEQDSKDSTYSLSSTLTLSKADYEKHKVYACEVTHQGLSSPVTKSFNRGECSRSGGGGEVQLVESGGGLVQPGGSLRLSCAASGFTFNTYAMNWVRQAPGKGLEWVARIRSKYNNYATYYADSVKDRFTISRDDSKNSLYLQMNSLKTEDTAVYYCVRHGNFPNSKVSWFQYWGQGTLVTVSSGGSGGSGGSGGSGGQAVVTQEPSLTVSPGGTVTLTCRSSTGAVTTSNYDNWVQQKPGQAPRGLIGGTNKRAPWTPARFSGSLLGGKAALTITGAQAEDEADYYCALWYSNLWVFGGGTKLTVLSR", "values": [
      {"measurement": "binding result", "setting": "human Nectin-4-mFc", "value": "binds"},
      {"measurement": "EC50 (read off the curve)", "setting": "[1]", "value": "~0.2", "unit": "µg/mL"},
      {"measurement": "EC50 (read off the curve)", "setting": "[2]", "value": "~0.03", "unit": "µg/mL"}
    ]}
  ]
}
